Source: the supplement of paper PMC9112550, “Optimization of the antimicrobial peptide Bac7 by deep mutational scanning” (BMC Biology, 2022)

System: Escherichia coli TOP10
Test: shrunken log2 fold change of peptide-encoding DNA abundance (4.5 h post-induction vs induction); higher = less antimicrobial activity (less host growth inhibition)
Conditions: time post-induction: 4.5 h; library: site-saturation at positions 5, 18, 19, 20
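Note: peptides expressed intracellularly from a pBAD plasmid library in pooled LB shake-flask culture, induced with 0.3% L-arabinose, DNA abundance read by NGS, three biological replicates, DESeq2 with apeglm shrinkage.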

Sequence	shrunken log2 fold change
RRIRPRPPRLPRPRPRPYGMPRP	-0.155
RRIRCRPPRLPRPRPRPHTVPRP	-0.371
RRIRMRPPRLPRPRPRPLPLPRP	0.718
RRIRGRPPRLPRPRPRPANVPRP	-0.126
RRIRYRPPRLPRPRPRPIRWPRP	-0.114
RRIRFRPPRLPRPRPRPFFIPRP	-0.429
RRIRVRPPRLPRPRPRPRHTPRP	0.226
RRIRDRPPRLPRPRPRPLATPRP	1.1
RRIRIRPPRLPRPRPRPHRWPRP	-0.0221
RRIRDRPPRLPRPRPRPAFCPRP	0.111
RRIRNRPPRLPRPRPRPTWHPRP	0.0157
RRIRTRPPRLPRPRPRPLYAPRP	-0.274
RRIRDRPPRLPRPRPRPAVNPRP	0.092
RRIRTRPPRLPRPRPRPWMFPRP	-0.355
RRIRERPPRLPRPRPRPALRPRP	0.0887
RRIRYRPPRLPRPRPRPDFKPRP	-0.261
RRIRARPPRLPRPRPRPNAGPRP	0.315
RRIRQRPPRLPRPRPRPWFLPRP	-0.0618
RRIRERPPRLPRPRPRPGRMPRP	0.0231
RRIRLRPPRLPRPRPRPEIWPRP	0.198
RRIRRRPPRLPRPRPRPGWIPRP	0.442
RRIRSRPPRLPRPRPRPLREPRP	0.369
RRIRSRPPRLPRPRPRPWWMPRP	-0.0399
RRIRQRPPRLPRPRPRPQGQPRP	0.254
RRIRGRPPRLPRPRPRPATIPRP	0.138

Sequence	shrunken log2 fold change
RRIRPRPPRLPRPRPRPVHNPRP	-0.038
RRIRQRPPRLPRPRPRPDLRPRP	-0.0102
RRIRTRPPRLPRPRPRPPYPPRP	0.0259
RRIRNRPPRLPRPRPRPMMTPRP	-0.312
RRIRMRPPRLPRPRPRPSEDPRP	0.974
RRIRDRPPRLPRPRPRPIRCPRP	-0.0116
RRIRIRPPRLPRPRPRPMIVPRP	-0.0322
RRIRVRPPRLPRPRPRPSDHPRP	-0.0923
RRIRQRPPRLPRPRPRPGFKPRP	-0.534
RRIRFRPPRLPRPRPRPVAPPRP	0.243
RRIRNRPPRLPRPRPRPSATPRP	-0.0839
RRIRARPPRLPRPRPRPMRHPRP	0.38
RRIRDRPPRLPRPRPRPWCQPRP	-0.0971
RRIRDRPPRLPRPRPRPEHAPRP	0.294
RRIRWRPPRLPRPRPRPCVGPRP	0.352
RRIRFRPPRLPRPRPRPFTQPRP	0.0192
RRIRHRPPRLPRPRPRPPNFPRP	-0.00427
RRIRVRPPRLPRPRPRPPVAPRP	0.466
RRIRWRPPRLPRPRPRPDIKPRP	-0.323
RRIRNRPPRLPRPRPRPRAGPRP	0.25
RRIRFRPPRLPRPRPRPKIWPRP	0.106
RRIRPRPPRLPRPRPRPTMDPRP	-0.125
RRIRRRPPRLPRPRPRPFWPPRP	0.312
RRIRLRPPRLPRPRPRPLFVPRP	-0.329
RRIRLRPPRLPRPRPRPVFDPRP	-0.251

Sequence	shrunken log2 fold change
RRIRGRPPRLPRPRPRPFRVPRP	-0.149
RRIRFRPPRLPRPRPRPVARPRP	0.0942
RRIRERPPRLPRPRPRPGDFPRP	-0.107
RRIRVRPPRLPRPRPRPKCWPRP	0.313
RRIRVRPPRLPRPRPRPDKNPRP	-0.12
RRIRHRPPRLPRPRPRPSKSPRP	-0.143
RRIRMRPPRLPRPRPRPESSPRP	0.135
RRIRGRPPRLPRPRPRPVLIPRP	0.223
RRIRIRPPRLPRPRPRPGRSPRP	0.0764
RRIRCRPPRLPRPRPRPECAPRP	0.543
RRIRLRPPRLPRPRPRPSGAPRP	-0.0192
RRIRKRPPRLPRPRPRPDENPRP	1.42
RRIRARPPRLPRPRPRPVQPPRP	0.392
RRIRCRPPRLPRPRPRPTYGPRP	-0.0844
RRIRDRPPRLPRPRPRPNMTPRP	0.0572
RRIRHRPPRLPRPRPRPSPEPRP	-0.0554
RRIRIRPPRLPRPRPRPSWTPRP	-0.237
RRIRFRPPRLPRPRPRPALNPRP	0.0855
RRIRKRPPRLPRPRPRPSAMPRP	0.664
RRIRDRPPRLPRPRPRPQSGPRP	-0.136
RRIRHRPPRLPRPRPRPWKWPRP	-0.00968
RRIRCRPPRLPRPRPRPKGMPRP	-0.148
RRIRSRPPRLPRPRPRPWGSPRP	-0.0403
RRIRERPPRLPRPRPRPLIHPRP	-0.522
RRIRCRPPRLPRPRPRPNLSPRP	-0.431

Sequence	shrunken log2 fold change
RRIRMRPPRLPRPRPRPHQNPRP	0.114
RRIRCRPPRLPRPRPRPCDYPRP	-0.0812
RRIRVRPPRLPRPRPRPGLCPRP	0.0795
RRIRHRPPRLPRPRPRPMTNPRP	-0.19
RRIRGRPPRLPRPRPRPRCWPRP	1.19
RRIRPRPPRLPRPRPRPCTTPRP	-0.732
RRIRFRPPRLPRPRPRPYQIPRP	-0.471
RRIRFRPPRLPRPRPRPGWDPRP	0.0298
RRIRFRPPRLPRPRPRPYKCPRP	-0.208
RRIRIRPPRLPRPRPRPIPGPRP	-0.191
RRIRIRPPRLPRPRPRPTKVPRP	-0.257
RRIRFRPPRLPRPRPRPHDPPRP	-0.1
RRIRSRPPRLPRPRPRPKQWPRP	0.474
RRIRQRPPRLPRPRPRPDSAPRP	-0.029
RRIRSRPPRLPRPRPRPMVNPRP	0.00321
RRIRWRPPRLPRPRPRPMQWPRP	0.379
RRIRRRPPRLPRPRPRPEVSPRP	0.214
RRIRVRPPRLPRPRPRPLRAPRP	0.719
RRIRHRPPRLPRPRPRPKGPPRP	0.216
RRIRQRPPRLPRPRPRPTCTPRP	-0.0329
RRIRMRPPRLPRPRPRPTFNPRP	-0.283
RRIRYRPPRLPRPRPRPTADPRP	-0.119
RRIRMRPPRLPRPRPRPCNVPRP	0.0415
RRIRCRPPRLPRPRPRPKICPRP	-0.0571
RRIRLRPPRLPRPRPRPYTKPRP	0.119

Sequence	shrunken log2 fold change
RRIRFRPPRLPRPRPRPQSGPRP	-0.036
RRIRLRPPRLPRPRPRPMGLPRP	0.0182
RRIRIRPPRLPRPRPRPRSAPRP	0.0737
RRIRKRPPRLPRPRPRPCNDPRP	-0.0241
RRIRHRPPRLPRPRPRPDQVPRP	-0.0632
RRIRERPPRLPRPRPRPDSCPRP	-0.149
RRIRGRPPRLPRPRPRPSVVPRP	0.658
RRIRSRPPRLPRPRPRPSGAPRP	0.12
RRIRARPPRLPRPRPRPDNQPRP	0.0635
RRIRDRPPRLPRPRPRPYSKPRP	0.0519
RRIRMRPPRLPRPRPRPGQYPRP	-0.00987
RRIRGRPPRLPRPRPRPNLFPRP	0.129
RRIRARPPRLPRPRPRPDREPRP	-0.0167
RRIRIRPPRLPRPRPRPMHGPRP	-0.216
RRIRKRPPRLPRPRPRPCANPRP	0.232
RRIRWRPPRLPRPRPRPKGAPRP	0.732
RRIRGRPPRLPRPRPRPRPPPRP	1.19
RRIRWRPPRLPRPRPRPPFCPRP	0.24
RRIRERPPRLPRPRPRPWHMPRP	-0.0037
RRIRMRPPRLPRPRPRPQMEPRP	0.0809
RRIRRRPPRLPRPRPRPCHWPRP	0.092
RRIRSRPPRLPRPRPRPRSYPRP	-0.066
RRIRIRPPRLPRPRPRPWTSPRP	-0.171
RRIRIRPPRLPRPRPRPCTGPRP	-0.887
RRIRFRPPRLPRPRPRPVCVPRP	-0.168
